From patent US20180311291A1 (PSIOXUS THERAPEUTICS, published 2018)

Experiments:
[1] = target: T1, human VEGF-165 (human, UniProt P15692-4 27-191); assay: direct VEGF binding ELISA and competition ELISA with bevacizumab, HRP anti-His detection; 293F supernatant and lysate
[2] = target: T1, human VEGF-165; assay: VEGF binding ELISA, HRP anti-His detection
[3] = target: T2, recombinant CTLA4-Fc (UniProt P16410 37-162); assay: direct CTLA-4 binding ELISA on CTLA4-Fc coated plates; supernatant diluted 1 in 2 to 1 in 2048
T2 construct: also called CTLA4-Fc (R&D Systems, 325-CT-200); not shown: Fc part of the bought fusion protein
T2 sequence (P16410 37-162 limits assumed): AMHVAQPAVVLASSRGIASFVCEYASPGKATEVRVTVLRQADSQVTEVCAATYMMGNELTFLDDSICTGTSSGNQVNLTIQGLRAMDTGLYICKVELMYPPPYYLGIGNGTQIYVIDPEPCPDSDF

[4] = target: T3, recombinant PDL1-Fc (UniProt Q9NZQ7 19-239); assay: direct PD-L1 binding ELISA on PDL1-Fc coated plates; 10-fold concentrated supernatant diluted 1 in 2 to 1 in 2048; anti-kappa light chain detection
T3 construct: also called PDL1-Fc (R&D Systems, 156-B7-100); not shown: Fc part of the bought fusion protein
T3 sequence (Q9NZQ7 19-239 limits assumed): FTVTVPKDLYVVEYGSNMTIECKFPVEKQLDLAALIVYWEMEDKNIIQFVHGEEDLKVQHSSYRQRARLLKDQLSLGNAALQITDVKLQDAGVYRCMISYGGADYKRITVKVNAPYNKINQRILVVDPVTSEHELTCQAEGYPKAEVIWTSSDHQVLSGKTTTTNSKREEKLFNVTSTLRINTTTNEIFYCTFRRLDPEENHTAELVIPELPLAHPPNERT

[5] = target: T4, non-recombinant PD-L1 ligand expressed in a membrane environment on the surface of lung carcinoma cells (A549) (human, UniProt Q9NZQ7 19-290); assay: flow cytometry on A549 cells with or without IFNgamma stimulation; 50 ul concentrated supernatant; Alexa-fluor 488 anti-human IgG detection
T4 construct: whole, on cells; also called cellular PD-L1; PD-L1 on IFNg stimulated A549 cells
T4 sequence (Q9NZQ7 19-290): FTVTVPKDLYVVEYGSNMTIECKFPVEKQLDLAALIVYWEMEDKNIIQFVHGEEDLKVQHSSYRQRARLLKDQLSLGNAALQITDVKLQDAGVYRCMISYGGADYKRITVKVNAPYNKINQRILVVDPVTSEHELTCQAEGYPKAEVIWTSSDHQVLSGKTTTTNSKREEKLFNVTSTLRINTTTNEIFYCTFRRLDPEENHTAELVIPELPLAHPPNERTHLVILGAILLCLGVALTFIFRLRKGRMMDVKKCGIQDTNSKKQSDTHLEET

T1 sequence (P15692 other isoform, or with tags, fused parts or gaps limits assumed): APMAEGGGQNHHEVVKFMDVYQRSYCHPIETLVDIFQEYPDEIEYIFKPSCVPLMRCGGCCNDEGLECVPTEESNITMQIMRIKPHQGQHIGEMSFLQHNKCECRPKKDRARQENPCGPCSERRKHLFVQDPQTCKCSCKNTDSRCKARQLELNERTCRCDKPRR

B1: anti-VEGF ScFv with C-terminal His6 tag expressed from NG-78 infected cells (scFv)
scFv: EVQLVESGGGLVQPGGSLRLSCAASGYTFTNYGMNWVRQAPGKGLEWVGWINTYTGEPTYAADFKRRFTFSLDTSKSTAYLQMNSLRAEDTAVYYCAKYPHYYGSSHWYFDVWGQGTLVTVSSGGGGSGGGGSGGGGSDIQMTQSPSSLSASVGDRVTITCSASQDISNYLNWYQQKPGKAPKVLIYFTSSLHSGVPSRFSGSGSGTDFTLTISSLQPEDFATYYCQQYSTVPWTFGQGTKVEIKRHHHHHH
notes: also called NG-78 anti-VEGF ScFv
Does B1 bind [1]?
Result: binds

B2: anti-VEGF ScFv with C-terminal His6 tag expressed from NG-76 infected cells (scFv)
scFv: B1 scFv
notes: also called NG-76 anti-VEGF ScFv
Does B2 bind [2]?
Result: binds

B3: anti-VEGF full length IgG1 antibody secreted from NG-165 infected cells (antibody, V domains shown)
VH: EVQLVESGGGLVQPGGSLRLSCAASGYTFTNYGMNWVRQAPGKGLEWVGWINTYTGEPTYAADFKRRFTFSLDTSKSTAYLQMNSLRAEDTAVYYCAKYPHYYGSSHWYFDVWGQGTLVTVSS
VL: DIQMTQSPSSLSASVGDRVTITCSASQDISNYLNWYQQKPGKAPKVLIYFTSSLHSGVPSRFSGSGSGTDFTLTISSLQPEDFATYYCQQYSTVPWTFGQGTKVEIKR
Does B3 bind [3]?
Result: no binding

Does B3 bind [4]?
Result: no binding

B4: anti-VEGF full length antibody (human IgG1) secreted from NG-135 infected cells (antibody, V domains shown)
VH: B3 VH
VL: B3 VL
notes: also called SSA-Bev-PA
Does B4 bind [5]?
Result: no binding
